Consider 15 variants from the RNAGym collection of RNA variant scans (doi:10.1093/molbev/msab373).

B1: Azoarcus group I ribozyme (parent)
chain: GUGCCUUGCGCCGGGAAACCACGCAAGGGAUGGUGUCAAAUUCGGCGAAACCUAAGCGCCCGCCCGGGCGUAUGGCAACGCCGAGCCAAGCUUCGGCGCCUGCGCCGAUGAAGGUGUAGAGACUAGACGGCACCCACCUAAGGCAAACGCUAUGGUGAAGGCAUAGUCCAGGGAGUGGCGAAAGUCACACAAACCGG

The data set covers variants of B1. Briefly: reverse-splicing fitness (ratio to wild type); higher = more active; in vitro selection; Mg2+ level not given. Put shortly: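 An in vitro group I ribozyme library with randomized positions was T7-transcribed and gel-purified. In triplicate, 10 pmol RNA in EPPS pH 7.5 was reacted with 50 pmoles of a 30-nt RNA substrate for 1 h at 37 °C across several added MgCl2 levels (1–48 mM), then stopped with EDTA. Products were reverse transcribed from a substrate-complementary primer, PCR-amplified and sequenced (HiSeq 4000). Fitness is a variant's read proportion after selection over that before, normalised to wild type.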
Consider GUGCCUUGCGCCGGGAAACCACGCAAGGGAUGGUGUCAAAUUCGGCGAAACCUAAGCGCCCGCCCGGGCGUAUGGCAACGCCGAGCCAAGCUUCGGCGCCUGCGCCGAUGAAGGUGUAGAGACUAGACGGCACCCACCUAAGGCUAACGCUAUGGUGAAGGCAUAGUCCAGGGAGAGGCGAAAGUCACACAAACCGG, for which the reverse-splicing fitness was 0.937. With GUGCCUUGCGCCGGGAAACCACGCAAGGGAUGGUGUCAAAUUCGGCGAAACCUAAGCGCCCGCCCGGGCGUAUGGCAACGCAGAGCCAAGCUUCGGCGCCUGCGCCGAUGAAGGUGUAGUGACUAGACGGCACCCACCUAAGGCUAACGUUAUGGUGAAGGCAUAGUCUAGGGAGAGGCGAAAGUCACACAAACCGG the figure was 0.00274. With GUGCCUUGCGCCGGGAAACCACGCAAGGGAUGGUGUCAAAUUCGGCGAAACCUAAGCGCCCGCCCGGGCGUAUGGCAACGCCGAGCCAAGCUUCGGCGCCUGCGCCGAUGUAGGUGUAGCGACUAGACGGCACCCACCUAAGGCAAACGAUAUGGUGAAGGCAUAGUCCAGGGAGCGGCGAAAGUCACACAAACCGG the figure was 0.0574. With GUGCCUUGCGCCGGGAAACCACGCAAGGGAUGGUGUCAAAUUCGGCGAAACCUAAGCGCCCGCCCGGGCGUAUGGCAACGCUGAGCCAAGCUUCGGCGCCUGCGCCGAUGAAGGUGUAGUGACUAGACGGCACCCACCUAAGGCGAACGAUAUGGUGAAGGCAUAGUCCAGGGAGGGGCGAAAGUCACACAAACCGG the figure was 0.00354.

Consider GUGCCUUGCGCCGGGAAACCACGCAAGGGAUGGUGUCAAAUUCGGCGAAACCUAAGCGCCCGCCCGGGCGUAUGGCAACGCGGAGCCAAGCUUCGGCGCCUGCGCCGAUGUAGGUGUAGUGACUAGACGGCACCCACCUAAGGCAAACGAUAUGGUGAAGGCAUAGUCGAGGGAGAGGCGAAAGUCACACAAACCGG, for which the reverse-splicing fitness worked out at 0.00827. With GUGCCUUGCGCCGGGAAACCACGCAAGGGAUGGUGUCAAAUUCGGCGAAACCUAAGCGCCCGCCCGGGCGUAUGGCAACGCUGAGCCAAGCUUCGGCGCCUGCGCCGAUGCAGGUGUAGGGACUAGACGGCACCCACCUAAGGCGAACGGUAUGGUGAAGGCAUAGUCCAGGGAGCGGCGAAAGUCACACAAACCGG the figure was 0.0103; with GUGCCUUGCGCCGGGAAACCACGCAAGGGAUGGUGUCAAAUUCGGCGAAACCUAAGCGCCCGCCCGGGCGUAUGGCAACGCGGAGCCAAGCUUCGGCGCCUGCGCCGAUGGAGGUGUAGGGACUAGACGGCACCCACCUAAGGCCAACGGUAUGGUGAAGGCAUAGUCAAGGGAGUGGCGAAAGUCACACAAACCGG, 0.00962. Then GUGCCUUGCGCCGGGAAACCACGCAAGGGAUGGUGUCAAAUUCGGCGAAACCUAAGCGCCCGCCCGGGCGUAUGGCAACGCUGAGCCAAGCUUCGGCGCCUGCGCCGAUGAAGGUGUAGCGACUAGACGGCACCCACCUAAGGCUAACGCUAUGGUGAAGGCAUAGUCAAGGGAGUGGCGAAAGUCACACAAACCGG, with 0.00492.

Turning to GUGCCUUGCGCCGGGAAACCACGCAAGGGAUGGUGUCAAAUUCGGCGAAACCUAAGCGCCCGCCCGGGCGUAUGGCAACGCGGAGCCAAGCUUCGGCGCCUGCGCCGAUGUAGGUGUAGCGACUAGACGGCACCCACCUAAGGCUAACGUUAUGGUGAAGGCAUAGUCUAGGGAGUGGCGAAAGUCACACAAACCGG, the reverse-splicing fitness came to 0.0129. Then GUGCCUUGCGCCGGGAAACCACGCAAGGGAUGGUGUCAAAUUCGGCGAAACCUAAGCGCCCGCCCGGGCGUAUGGCAACGCAGAGCCAAGCUUCGGCGCCUGCGCCGAUGGAGGUGUAGAGACUAGACGGCACCCACCUAAGGCAAACGUUAUGGUGAAGGCAUAGUCCAGGGAGGGGCGAAAGUCACACAAACCGG, with 0.0264; and GUGCCUUGCGCCGGGAAACCACGCAAGGGAUGGUGUCAAAUUCGGCGAAACCUAAGCGCCCGCCCGGGCGUAUGGCAACGCCGAGCCAAGCUUCGGCGCCUGCGCCGAUGGAGGUGUAGCGACUAGACGGCACCCACCUAAGGCGAACGCUAUGGUGAAGGCAUAGUCCAGGGAGGGGCGAAAGUCACACAAACCGG, with 0.0972; and GUGCCUUGCGCCGGGAAACCACGCAAGGGAUGGUGUCAAAUUCGGCGAAACCUAAGCGCCCGCCCGGGCGUAUGGCAACGCUGAGCCAAGCUUCGGCGCCUGCGCCGAUGUAGGUGUAGGGACUAGACGGCACCCACCUAAGGCGAACGAUAUGGUGAAGGCAUAGUCCAGGGAGGGGCGAAAGUCACACAAACCGG, with 0.00603. With GUGCCUUGCGCCGGGAAACCACGCAAGGGAUGGUGUCAAAUUCGGCGAAACCUAAGCGCCCGCCCGGGCGUAUGGCAACGCGGAGCCAAGCUUCGGCGCCUGCGCCGAUGGAGGUGUAGUGACUAGACGGCACCCACCUAAGGCGAACGAUAUGGUGAAGGCAUAGUCCAGGGAGAGGCGAAAGUCACACAAACCGG the figure was 0.00897; with GUGCCUUGCGCCGGGAAACCACGCAAGGGAUGGUGUCAAAUUCGGCGAAACCUAAGCGCCCGCCCGGGCGUAUGGCAACGCUGAGCCAAGCUUCGGCGCCUGCGCCGAUGCAGGUGUAGUGACUAGACGGCACCCACCUAAGGCGAACGUUAUGGUGAAGGCAUAGUCUAGGGAGGGGCGAAAGUCACACAAACCGG, 0.00271. Then GUGCCUUGCGCCGGGAAACCACGCAAGGGAUGGUGUCAAAUUCGGCGAAACCUAAGCGCCCGCCCGGGCGUAUGGCAACGCAGAGCCAAGCUUCGGCGCCUGCGCCGAUGUAGGUGUAGAGACUAGACGGCACCCACCUAAGGCAAACGCUAUGGUGAAGGCAUAGUCUAGGGAGAGGCGAAAGUCACACAAACCGG, with 0.0152.
